Experimental data as given in US20200270325A1 (Merck Sharp & Dohme, published 2020).
Numbered stars: 1 amine (or outer) side, 2 acyl side, 3 side chain; on linkers, the order of the positions; unused ones are H or OH. Square brackets hold non-standard residues; d marks the D form. Side chains are listed from the residue outwards. Ends that are not written are not given here. * marks the point of attachment. Phe(4-CH2NH2) = NCc1ccc(C[C@H](N)C(=O)O)cc1; C18 diacid = O=C(O)CCCCCCCCCCCCCCCCC(=O)*; C16 diacid = O=C(O)CCCCCCCCCCCCCCC(=O)*; γGlu = O=C(O)[C@H](CCC(=O)[*:2])N[*:1]; Met(O2) = CS(=O)(=O)CC[C@H](N)C(=O)O; αMeD = C[C@](N)(CC(=O)O)C(=O)O; αMeS = C[C@](N)(CO)C(=O)O; AEEA = NCCOCCOCC(=O)O; Aib = CC(C)(N)C(=O)O

B1: TP672 (peptide)
peptide: H[Aib]QGTFTSDYSKYLDARAAK([AEEA-AEEA-γGlu-C18 diacid])DFVQWL[Met(O2)]ET-NH2
modifications: N-terminus assumed
SMILES: CC(C)C[C@H](NC(=O)[C@H](Cc1ccc(O)cc1)NC(=O)[C@H](CCCCN)NC(=O)[C@H](CO)NC(=O)[C@H](Cc1ccc(O)cc1)NC(=O)[C@H](CC(=O)O)NC(=O)[C@H](CO)NC(=O)[C@@H](NC(=O)[C@H](Cc1ccccc1)NC(=O)[C@@H](NC(=O)CNC(=O)[C@H](CCC(N)=O)NC(=O)C(C)(C)NC(=O)[C@@H](N)Cc1c[nH]cn1)[C@@H](C)O)[C@@H](C)O)C(=O)N[C@@H](CC(=O)O)C(=O)N[C@@H](C)C(=O)N[C@@H](CCCNC(=N)N)C(=O)N[C@@H](C)C(=O)N[C@@H](C)C(=O)N[C@@H](CCCCNC(=O)COCCOCCNC(=O)COCCOCCNC(=O)CC[C@H](NC(=O)CCCCCCCCCCCCCCCCC(=O)O)C(=O)O)C(=O)N[C@@H](CC(=O)O)C(=O)N[C@@H](Cc1ccccc1)C(=O)N[C@H](C(=O)N[C@@H](CCC(N)=O)C(=O)N[C@@H](Cc1c[nH]c2ccccc12)C(=O)N[C@@H](CC(C)C)C(=O)N[C@@H](CCS(C)(=O)=O)C(=O)N[C@@H](CCC(=O)O)C(=O)N[C@H](C(N)=O)[C@@H](C)O)C(C)C
B2: TP673 (peptide)
peptide: H[Aib]QGTFTSDYSKYLD[Aib]RAAK([AEEA-AEEA-γGlu-C18 diacid])DFVQWL[Met(O2)]ET-NH2
modifications: N-terminus assumed
SMILES: CC(C)C[C@H](NC(=O)[C@H](Cc1c[nH]c2ccccc12)NC(=O)[C@H](CCC(N)=O)NC(=O)[C@@H](NC(=O)[C@H](Cc1ccccc1)NC(=O)[C@H](CC(=O)O)NC(=O)[C@H](CCCCNC(=O)COCCOCCNC(=O)COCCOCCNC(=O)CC[C@H](NC(=O)CCCCCCCCCCCCCCCCC(=O)O)C(=O)O)NC(=O)[C@H](C)NC(=O)[C@H](C)NC(=O)[C@H](CCCNC(=N)N)NC(=O)C(C)(C)NC(=O)[C@H](CC(=O)O)NC(=O)[C@H](CC(C)C)NC(=O)[C@H](Cc1ccc(O)cc1)NC(=O)[C@H](CCCCN)NC(=O)[C@H](CO)NC(=O)[C@H](Cc1ccc(O)cc1)NC(=O)[C@H](CC(=O)O)NC(=O)[C@H](CO)NC(=O)[C@@H](NC(=O)[C@H](Cc1ccccc1)NC(=O)[C@@H](NC(=O)CNC(=O)[C@H](CCC(N)=O)NC(=O)C(C)(C)NC(=O)[C@@H](N)Cc1c[nH]cn1)[C@@H](C)O)[C@@H](C)O)C(C)C)C(=O)N[C@@H](CCS(C)(=O)=O)C(=O)N[C@@H](CCC(=O)O)C(=O)N[C@H](C(N)=O)[C@@H](C)O
B3: TP674 (peptide)
peptide: H[Aib]QGTFTSDYSKYLEARAAK([AEEA-AEEA-γGlu-C18 diacid])DFVQWL[Met(O2)]DT-NH2
modifications: N-terminus assumed
SMILES: CC(C)C[C@H](NC(=O)[C@H](Cc1ccc(O)cc1)NC(=O)[C@H](CCCCN)NC(=O)[C@H](CO)NC(=O)[C@H](Cc1ccc(O)cc1)NC(=O)[C@H](CC(=O)O)NC(=O)[C@H](CO)NC(=O)[C@@H](NC(=O)[C@H](Cc1ccccc1)NC(=O)[C@@H](NC(=O)CNC(=O)[C@H](CCC(N)=O)NC(=O)C(C)(C)NC(=O)[C@@H](N)Cc1c[nH]cn1)[C@@H](C)O)[C@@H](C)O)C(=O)N[C@@H](CCC(=O)O)C(=O)N[C@@H](C)C(=O)N[C@@H](CCCNC(=N)N)C(=O)N[C@@H](C)C(=O)N[C@@H](C)C(=O)N[C@@H](CCCCNC(=O)COCCOCCNC(=O)COCCOCCNC(=O)CC[C@H](NC(=O)CCCCCCCCCCCCCCCCC(=O)O)C(=O)O)C(=O)N[C@@H](CC(=O)O)C(=O)N[C@@H](Cc1ccccc1)C(=O)N[C@H](C(=O)N[C@@H](CCC(N)=O)C(=O)N[C@@H](Cc1c[nH]c2ccccc12)C(=O)N[C@@H](CC(C)C)C(=O)N[C@@H](CCS(C)(=O)=O)C(=O)N[C@@H](CC(=O)O)C(=O)N[C@H](C(N)=O)[C@@H](C)O)C(C)C
B4: TP659 (peptide)
peptide: HXQGTFTSDXSKYLDXRAAQDFVQWLLAX
modifications: D-Ser (s) at 2; pAF(PEG2PEG2γEC16OH) at 10; Aib (U) at 16; KγE at 30-31 (γ-glutamic acid after Lys 30); C-terminal amide
B5: TP638 (peptide)
peptide: H[Aib]QGTFTSDYSKYLDARAAQDFV[Phe(4-CH2NH2)]([AEEA-γGlu-C18 diacid])WLLDT-NH2
modifications: N-terminus assumed
SMILES: CC(C)C[C@H](NC(=O)[C@H](Cc1ccc(O)cc1)NC(=O)[C@H](CCCCN)NC(=O)[C@H](CO)NC(=O)[C@H](Cc1ccc(O)cc1)NC(=O)[C@H](CC(=O)O)NC(=O)[C@H](CO)NC(=O)[C@@H](NC(=O)[C@H](Cc1ccccc1)NC(=O)[C@@H](NC(=O)CNC(=O)[C@H](CCC(N)=O)NC(=O)C(C)(C)NC(=O)[C@@H](N)Cc1c[nH]cn1)[C@@H](C)O)[C@@H](C)O)C(=O)N[C@@H](CC(=O)O)C(=O)N[C@@H](C)C(=O)N[C@@H](CCCNC(=N)N)C(=O)N[C@@H](C)C(=O)N[C@@H](C)C(=O)N[C@@H](CCC(N)=O)C(=O)N[C@@H](CC(=O)O)C(=O)N[C@@H](Cc1ccccc1)C(=O)N[C@H](C(=O)N[C@@H](Cc1ccc(CNC(=O)COCCOCCNC(=O)CC[C@H](NC(=O)CCCCCCCCCCCCCCCCC(=O)O)C(=O)O)cc1)C(=O)N[C@@H](Cc1c[nH]c2ccccc12)C(=O)N[C@@H](CC(C)C)C(=O)N[C@@H](CC(C)C)C(=O)N[C@@H](CC(=O)O)C(=O)N[C@H](C(N)=O)[C@@H](C)O)C(C)C
B6: TP639 (peptide)
peptide: H[Aib]QGTFTSDYSKYLDARAAQDFV[Phe(4-CH2NH2)]([γGlu-C18 diacid])WLLDT-NH2
modifications: N-terminus assumed
SMILES: CC(C)C[C@H](NC(=O)[C@H](Cc1ccc(O)cc1)NC(=O)[C@H](CCCCN)NC(=O)[C@H](CO)NC(=O)[C@H](Cc1ccc(O)cc1)NC(=O)[C@H](CC(=O)O)NC(=O)[C@H](CO)NC(=O)[C@@H](NC(=O)[C@H](Cc1ccccc1)NC(=O)[C@@H](NC(=O)CNC(=O)[C@H](CCC(N)=O)NC(=O)C(C)(C)NC(=O)[C@@H](N)Cc1c[nH]cn1)[C@@H](C)O)[C@@H](C)O)C(=O)N[C@@H](CC(=O)O)C(=O)N[C@@H](C)C(=O)N[C@@H](CCCNC(=N)N)C(=O)N[C@@H](C)C(=O)N[C@@H](C)C(=O)N[C@@H](CCC(N)=O)C(=O)N[C@@H](CC(=O)O)C(=O)N[C@@H](Cc1ccccc1)C(=O)N[C@H](C(=O)N[C@@H](Cc1ccc(CNC(=O)CC[C@H](NC(=O)CCCCCCCCCCCCCCCCC(=O)O)C(=O)O)cc1)C(=O)N[C@@H](Cc1c[nH]c2ccccc12)C(=O)N[C@@H](CC(C)C)C(=O)N[C@@H](CC(C)C)C(=O)N[C@@H](CC(=O)O)C(=O)N[C@H](C(N)=O)[C@@H](C)O)C(C)C

Key:
[1] = biological target: human Glucagon receptor (GCGR) (human, UniProt P47871 26-477); experiment: cell-based or functional assay
[2] = biological target: human GLP-1 receptor (GLP1R) (human, UniProt P43220 24-463); experiment: cell-based or functional assay

Chain of human Glucagon receptor (GCGR) (P47871 26-477): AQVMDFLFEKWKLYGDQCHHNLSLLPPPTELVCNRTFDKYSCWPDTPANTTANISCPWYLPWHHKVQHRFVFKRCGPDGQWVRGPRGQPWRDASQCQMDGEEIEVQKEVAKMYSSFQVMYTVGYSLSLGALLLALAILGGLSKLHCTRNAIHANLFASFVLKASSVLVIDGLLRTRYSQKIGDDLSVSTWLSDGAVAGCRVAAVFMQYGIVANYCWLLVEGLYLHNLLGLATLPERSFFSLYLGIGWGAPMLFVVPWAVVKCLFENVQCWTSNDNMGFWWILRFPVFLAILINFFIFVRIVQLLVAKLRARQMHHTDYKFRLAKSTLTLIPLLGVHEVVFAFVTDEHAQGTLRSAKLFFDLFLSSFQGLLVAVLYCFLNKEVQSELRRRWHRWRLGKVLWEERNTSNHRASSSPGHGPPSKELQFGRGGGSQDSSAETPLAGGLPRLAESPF

Binder | GCGR EC50 human [1] | GLP1R EC50 human [2]
H[Aib]QGTFTSD[Phe(4-CH2NH2)]([AEEA-AEEA-γGlu-C16 diacid])SKYLD[Aib]RAAQDFVQWL[Met(O2)]ATK-{γGlu-NH2} [TP658] | 3.2 nM | 1.66 nM
B1 | 0.35 nM | 0.51 nM
H[αMeS]QGTFTSD[Phe(4-CH2NH2)]([AEEA-AEEA-γGlu-C16 diacid])SKYLD[Aib]RAAQDFVQWLLATK-{γGlu-NH2} [TP660] | 4.54 nM | 3.59 nM
H[Aib]QGTFTSD[Phe(4-CH2NH2)]([AEEA-AEEA-γGlu-C20‑OH])SKYLD[Aib]RAAQDFVQWLLATK-{γGlu-NH2} [TP581] | 4.95 nM | 1.69 nM
B2 | 0.22 nM | 0.67 nM
H[Aib]QGTFTSDYSKYLD[Aib]RAAQ[Phe(4-CH2NH2)]([AEEA-AEEA-γGlu-C16 diacid])FVQWLLATK-{γGlu-NH2} [TP665] | 0.79 nM | 1.6 nM
H[Aib]QGTFTSD[Phe(4-CH2NH2)]([AEEA-AEEA-γGlu-C16 diacid])SKYLD[Aib]RAAQDFVQWLL[αMeD]TK-{γGlu-NH2} [TP657] | 0.14 nM | 2.18 nM
B3 | 1.08 nM | 0.45 nM
B4 | 0.46 nM | > 4.9 nM
B5 | 5.05 nM | 1.55 nM
H[Aib]QGTFTSDYSKYLD[Aib]RAAQFVQ[Phe(4-CH2NH2)]([AEEA-AEEA-γGlu-C16 diacid])WLLATK-{γGlu-NH2} [TP667] | > 19.8 nM | > 19.8 nM
H[Aib]QGTFTSDYSKYLD[Aib]RAA[Phe(4-CH2NH2)]([AEEA-AEEA-γGlu-C16 diacid])DFVQWLLATK-{γGlu-NH2} [TP663] | 0.22 nM | 0.38 nM
B6 | 3.38 nM | 2.09 nM
H[Aib]QGTFTSDYSKYLD[Aib]RAAQFVQK([AEEA-AEEA-γGlu-C16 diacid])WLLATK-{γGlu-NH2} [TP666] | > 19.8 nM | > 19.8 nM
H[Aib]QGTFTSDYSKYLD[Aib]RAAK([AEEA-AEEA-γGlu-C16 diacid])DFVQWLLATK-{γGlu-NH2} [TP662] | 1.45 nM | 0.52 nM
